{"source": "patent US5223421A", "about": "“Identification of methionine Nα-acetyltransferase” (The General Hospital Corporation, priority 1990, dated 1993)", "molecular_target": "T1, yeast methionine acetyltransferase (M-N^α AT) (Saccharomyces cerevisiae, UniProt Q06504)", "T1 construct": "a crude yeast homogenate from the aaa1 mutant strain; endogenous in cells; host or cells: Saccharomyces cerevisiae strain T3A-a (aaa1), crude lysate", "T1 sequence (Q06504 1-195)": "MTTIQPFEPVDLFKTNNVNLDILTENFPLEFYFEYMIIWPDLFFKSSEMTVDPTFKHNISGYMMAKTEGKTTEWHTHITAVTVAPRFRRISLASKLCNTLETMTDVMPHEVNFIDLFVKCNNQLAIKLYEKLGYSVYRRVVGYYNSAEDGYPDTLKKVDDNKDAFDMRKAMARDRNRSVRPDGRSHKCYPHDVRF", "T1 sequence (Q12387 2-796 partner limits assumed)": "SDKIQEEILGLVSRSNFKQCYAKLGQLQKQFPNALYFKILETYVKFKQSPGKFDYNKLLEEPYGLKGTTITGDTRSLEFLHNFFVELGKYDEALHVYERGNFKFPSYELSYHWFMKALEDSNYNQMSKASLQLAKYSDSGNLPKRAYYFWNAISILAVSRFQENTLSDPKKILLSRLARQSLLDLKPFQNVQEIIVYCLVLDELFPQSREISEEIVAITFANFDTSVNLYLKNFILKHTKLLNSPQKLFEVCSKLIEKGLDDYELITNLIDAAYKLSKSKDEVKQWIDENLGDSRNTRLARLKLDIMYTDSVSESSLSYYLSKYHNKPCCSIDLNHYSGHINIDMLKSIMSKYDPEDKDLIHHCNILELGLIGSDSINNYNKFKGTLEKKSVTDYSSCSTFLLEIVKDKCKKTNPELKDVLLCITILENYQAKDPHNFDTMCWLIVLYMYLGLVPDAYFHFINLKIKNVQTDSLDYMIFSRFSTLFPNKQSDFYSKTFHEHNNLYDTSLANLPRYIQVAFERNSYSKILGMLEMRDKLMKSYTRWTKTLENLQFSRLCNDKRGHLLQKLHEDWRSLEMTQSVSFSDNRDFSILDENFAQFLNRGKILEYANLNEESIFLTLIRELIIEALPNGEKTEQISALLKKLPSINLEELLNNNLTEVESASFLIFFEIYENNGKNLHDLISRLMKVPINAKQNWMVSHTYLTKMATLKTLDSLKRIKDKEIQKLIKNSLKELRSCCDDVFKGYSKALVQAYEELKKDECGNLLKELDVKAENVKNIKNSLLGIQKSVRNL", "experiment": "Relative activity of yeast methionine acetyltransferase for N^α -acetylation of synthetic peptides (PAI analogues)", "assay_type": "biochemical", "set-up": "tested at 50 µM", "conditions": "Table 5; mean ± SD (N=3-5); normalized to yeast proteinase A inhibitor 3", "description": "N^α -acetyltransferase activity was determined as previously described [Lee et al., J. Biol. Chem. 263:14948-14955 (1988)]. Aliquots of the lysate or chromatographic fractions were added to 1.5 ml Eppendorf tubes containing a reaction mixture of 50 mM HEPES, pH 7.4, 150 mM KCl, 1 mM DTT, 25 μM [^3 H] acetyl coenzyme A (0.5 μCi) and 50 μM synthetic peptide with an adjusted final volume of 100 μl. The assay mixture was incubated at 30° C. for 30 min. The reaction was stopped by adding 17 μl of 0.5M acetic acid and chilled in an ice bath. The reaction samples were filtered through SP membrane discs (Cuno) (previously pre-swollen in 0.5M acetic acid), and then washed three times with 1 ml of 0.5M acetic acid on a Millipore 1225 sampling manifold. The partially dried membranes were placed in scintillation cocktail and counted with a Beckman LS 3801 scintillation counter. One unit of activity was defined as the amount of enzyme able to transfer 1 pmol of [^3 H] acetyl group from [^3 H] acetyl coenzyme A to synthetic peptide per min under standard enzyme assay conditions defined above.\nProteinase A inhibitor 3 (PAI) (Tsunasawa et al., Methods Enzymol. 106:165-170 (1984); Wold, F., Trends Biochem Sci. 9:256-267 (1984); Driessen et al., CRC Crit. Rev. Biochem 18:281-325 (1985); Mullen et al., EMBO J. 8:2067-2075 (1989); Lee et al., J. Bacteriol. 171:5795-5802 (1989); Hershko et al., Proc. Natl. Acad. Sci. USA 81:7021-7025 (1984); Bachmair et al., Science 234:179-186 (1986); Arfin et al., Biochemistry 27:7979-7984 (1988); Persson et al., Eur. J. Biochem. 152:523-527 (1985); Huang al., Biochemistry 26:8242-8246 (1987); Lee et al., J. Biol. Chem. 263:14948-14955 (1988); Kamitani et al., J. Biol. Chem. 264:13188-13193 (1989)) is the only known yeast protein which is acetylated at its NH2 -terminal methionine residue (Biedermann et al., Carlsberg Res. Commun. 45:225-235 (1980)). […] The numbers in parentheses refer to the residue numbers, and the letters in parentheses refer to the amino acid sequence Abbreviations are as in FIG. 1. Data are reported as mean activity ±SD (N=3-5) and are normalized to the activity of the homogenate towards yeast proteinase A inhibitor 3. The sequence of this protein is:\nThus, by using PAI, its analogues and other peptides, the structural features of M-N^α AT substrates were studied. […] Only three of nineteen analogues were acetylated, although the efficiency of their acetylation varied from 9-55% (Asp>Glu>Gln). Although it was shown previously that iso-cytochrome c variant proteins (Met-Ile-Arg - - -, Met-Ile-Lys - - -, Met-Met-Asn - - -) can be N^α -acetylated in vivo (Tsunasawa et al., J. Biol. Chem. 260:5382-5391 (1985)), synthetic peptides mimicking the NH2 -terminal 24 amino acid residues of these iso-cytochrome c variants were not acetylated by the yeast M-N^αAT."}
{"substance": "MNTDQQKVSEIFQSSKEKLQGDAK (MNTDQQKVSEIFQSSKEKLQGDAK) [Proteinase A Inhibitor 3 (1-24) (Yeast)]", "values": [{"measurement": "Activity (%)", "result": "100 ± 5", "unit": "%"}]}
